Reference: publication PMC10397247
Each block holds one binder with its values, some of them ahead of it.

Assays:
[1] = molecular target: T1, 4H3381-bH; assay: two-hybrid library CCNG1;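 note: natural log of median RNA to DNA barcode read ratio; higher means stronger binding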
T1 chain: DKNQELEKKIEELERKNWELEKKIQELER

[2] = molecular target: T2, 4H349-bH; assay: two-hybrid library CCNG1;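 note: natural log of median RNA to DNA barcode read ratio; higher means stronger binding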
T2 chain: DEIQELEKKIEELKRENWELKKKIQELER

[3] = molecular target: T3, 4H56-bH; assay: two-hybrid library CCNG1;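 note: natural log of median RNA to DNA barcode read ratio; higher means stronger binding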
T3 chain: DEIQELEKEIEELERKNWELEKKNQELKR

[4] = molecular target: T4, 4H730-bH; assay: two-hybrid library CCNG1;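 note: natural log of median RNA to DNA barcode read ratio; higher means stronger binding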
T4 chain: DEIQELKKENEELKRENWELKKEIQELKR

[5] = molecular target: T5, 4H796-bH; assay: two-hybrid library CCNG1;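 note: natural log of median RNA to DNA barcode read ratio; higher means stronger binding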
T5 chain: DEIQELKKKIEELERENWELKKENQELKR

[6] = molecular target: T6, 4H932-bH; assay: two-hybrid library CCNG1;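 note: natural log of median RNA to DNA barcode read ratio; higher means stronger binding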
T6 chain: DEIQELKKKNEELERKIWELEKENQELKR

[7] = molecular target: T7, 4H949-bH; assay: two-hybrid library CCNG1
T7 chain: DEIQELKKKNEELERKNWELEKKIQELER

[8] = molecular target: T8, 4H683-bA; assay: two-hybrid library CCNG1
T8 chain: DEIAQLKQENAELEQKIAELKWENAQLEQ

[9] = molecular target: T9, 4H754-bA; assay: two-hybrid library CCNG1
T9 chain: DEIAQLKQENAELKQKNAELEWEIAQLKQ

[10] = molecular target: T10, 4H780-bA; assay: two-hybrid library CCNG1
T10 chain: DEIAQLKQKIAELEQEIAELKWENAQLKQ

[11] = molecular target: T11, 4H797-bA; assay: two-hybrid library CCNG1
T11 chain: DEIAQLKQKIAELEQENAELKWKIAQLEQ

[12] = molecular target: T12, 4H855-bA; assay: two-hybrid library CCNG1
T12 chain: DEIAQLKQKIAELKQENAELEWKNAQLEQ

[13] = molecular target: T13, 4H918-bA; assay: two-hybrid library CCNG1
T13 chain: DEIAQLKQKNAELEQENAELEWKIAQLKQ

[14] = molecular target: T14, 4H953-bA; assay: two-hybrid library CCNG1
T14 chain: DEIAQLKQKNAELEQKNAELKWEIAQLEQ

[15] = molecular target: T15, 4H968-bA; assay: two-hybrid library CCNG1
T15 chain: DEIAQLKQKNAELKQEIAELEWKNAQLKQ

[16] = molecular target: T16, O8-bA; assay: two-hybrid library CCNG1
T16 chain: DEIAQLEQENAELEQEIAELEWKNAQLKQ

[17] = molecular target: T17, 4H3029-AA; assay: two-hybrid library CCmax
T17 chain: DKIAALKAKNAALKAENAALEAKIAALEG

[18] = molecular target: T18, 4H3066-AA; assay: two-hybrid library CCmax; settings: mean of both orientations
T18 chain: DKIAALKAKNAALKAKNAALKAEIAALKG

[19] = molecular target: T19, 4H3102-AA; assay: two-hybrid library CCmax; settings: mean of both orientations
T19 chain: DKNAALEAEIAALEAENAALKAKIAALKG

[20] = molecular target: T20, 4H3121-AA; assay: two-hybrid library CCmax; settings: mean of both orientations
T20 chain: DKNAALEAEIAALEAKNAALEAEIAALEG

[21] = molecular target: T21, 4H3417-AA; assay: two-hybrid library CCmax; settings: mean of both orientations
T21 chain: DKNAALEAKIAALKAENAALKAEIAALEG

[22] = molecular target: T22, 4H3446-AA; assay: two-hybrid library CCmax; settings: mean of both orientations
T22 chain: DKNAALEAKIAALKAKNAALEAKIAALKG

[23] = molecular target: T23, 4H3591-AA; assay: two-hybrid library CCmax; settings: mean of both orientations
T23 chain: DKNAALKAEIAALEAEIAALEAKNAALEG

[24] = molecular target: T24, 4H3628-AA; assay: two-hybrid library CCmax; settings: mean of both orientations
T24 chain: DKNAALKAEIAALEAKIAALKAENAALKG

[25] = molecular target: T25, 4H3666-AA; assay: two-hybrid library CCmax; settings: mean of both orientations
T25 chain: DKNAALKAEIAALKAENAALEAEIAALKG

[26] = molecular target: T26, 4H3709-AA; assay: two-hybrid library CCmax; settings: mean of both orientations
T26 chain: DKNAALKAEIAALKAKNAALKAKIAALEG

[27] = molecular target: T27, 4H391-AA; assay: two-hybrid library CCmax; settings: mean of both orientations
T27 chain: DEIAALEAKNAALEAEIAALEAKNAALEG

[28] = molecular target: T28, 4H3920-AA; assay: two-hybrid library CCmax; settings: mean of both orientations
T28 chain: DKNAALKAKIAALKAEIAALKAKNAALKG

[29] = molecular target: T29, 4H3939-AA; assay: two-hybrid library CCmax; settings: mean of both orientations
T29 chain: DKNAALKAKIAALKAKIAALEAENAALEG

[30] = molecular target: T30, 4H428-AA; assay: two-hybrid library CCmax; settings: mean of both orientations
T30 chain: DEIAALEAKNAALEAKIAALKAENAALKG

[31] = molecular target: T31, 4H478-AA; assay: two-hybrid library CCmax; settings: mean of both orientations
T31 chain: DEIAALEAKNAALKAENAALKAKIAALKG

[32] = molecular target: T32, 4H497-AA; assay: two-hybrid library CCmax; settings: mean of both orientations
T32 chain: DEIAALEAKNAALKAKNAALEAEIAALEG

[33] = molecular target: T33, 4H656-AA; assay: two-hybrid library CCmax; settings: mean of both orientations
T33 chain: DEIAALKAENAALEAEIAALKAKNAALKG

[34] = molecular target: T34, 4H675-AA; assay: two-hybrid library CCmax; settings: mean of both orientations
T34 chain: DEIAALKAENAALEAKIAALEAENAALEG

[35] = molecular target: T35, 4H971-AA; assay: two-hybrid library CCmax; settings: mean of both orientations
T35 chain: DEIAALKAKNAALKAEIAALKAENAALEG

[36] = molecular target: T36, 4H457-bN; assay: two-hybrid library CCNG1
T36 chain: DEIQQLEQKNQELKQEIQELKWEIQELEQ

[37] = molecular target: T37, 4H575-bN; assay: two-hybrid library CCNG1
T37 chain: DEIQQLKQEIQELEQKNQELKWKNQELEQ

[38] = molecular target: T38, 4H683-bN; assay: two-hybrid library CCNG1
T38 chain: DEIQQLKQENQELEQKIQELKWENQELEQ

[39] = molecular target: T39, 4H754-bN; assay: two-hybrid library CCNG1
T39 chain: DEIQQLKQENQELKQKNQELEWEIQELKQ

[40] = molecular target: T40, 4H780-bN; assay: two-hybrid library CCNG1
T40 chain: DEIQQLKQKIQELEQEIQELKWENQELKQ

[41] = molecular target: T41, 4H797-bN; assay: two-hybrid library CCNG1
T41 chain: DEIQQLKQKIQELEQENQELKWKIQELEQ

[42] = molecular target: T42, 4H855-bN; assay: two-hybrid library CCNG1
T42 chain: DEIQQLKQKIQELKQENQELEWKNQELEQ

[43] = molecular target: T43, 4H918-bN; assay: two-hybrid library CCNG1
T43 chain: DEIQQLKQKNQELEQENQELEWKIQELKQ

[44] = molecular target: T44, 4H953-bN; assay: two-hybrid library CCNG1
T44 chain: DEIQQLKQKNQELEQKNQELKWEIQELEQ

[45] = molecular target: T45, 4H968-bN; assay: two-hybrid library CCNG1
T45 chain: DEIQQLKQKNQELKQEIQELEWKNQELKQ

[46] = molecular target: T46, 4H591-bN; assay: two-hybrid library CCNG1
T46 chain: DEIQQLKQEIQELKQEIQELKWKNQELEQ

[47] = molecular target: T47, 4H626-bN; assay: two-hybrid library CCNG1
T47 chain: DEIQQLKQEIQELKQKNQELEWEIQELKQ

[48] = molecular target: T48, 4H906-bN; assay: two-hybrid library CCNG1
T48 chain: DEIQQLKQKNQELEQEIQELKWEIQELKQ

[49] = molecular target: T49, 4H619-bA; assay: two-hybrid library CCNG1
T49 chain: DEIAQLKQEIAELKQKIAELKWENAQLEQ

[50] = molecular target: T50, 4H850-bA; assay: two-hybrid library CCNG1
T50 chain: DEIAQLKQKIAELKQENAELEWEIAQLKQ

[51] = molecular target: T51, 4H906-bA; assay: two-hybrid library CCNG1
T51 chain: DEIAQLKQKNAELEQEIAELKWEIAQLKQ

B1: 4H3381-bH (peptide)
chain: DKNQELEKKIEELERKNWELEKKIQELER
interaction score [1]: 1.27
interaction score [2]: -1.42
interaction score [3]: -1.78
interaction score [4]: -1.42
interaction score [5]: -1.28
interaction score [6]: -0.263
interaction score [7]: 0.43

B3: 4H3029-AA (peptide)
chain: DKIAALKAKNAALKAENAALEAKIAALEG
interaction score [17]: -0.965
interaction score [18]: -1.01
interaction score [19]: 0.23
interaction score [20]: -1.89
interaction score [21]: -1.74
interaction score [22]: -1.79
interaction score [23]: -1.37
interaction score [24]: -1.87
interaction score [25]: -1.86
interaction score [26]: -1.34
interaction score [27]: -1.42
interaction score [28]: -1.69
interaction score [29]: -1.98
interaction score [30]: -1.74
interaction score [31]: 1.48
interaction score [32]: -0.722
interaction score [33]: -1.3
interaction score [34]: -1.45
interaction score [35]: -2.45

B4: 4H457-bN (peptide)
chain: DEIQQLEQKNQELKQEIQELKWEIQELEQ
interaction score [36]: -1.6
interaction score [37]: -0.989
interaction score [38]: -0.914
interaction score [39]: -0.487
interaction score [40]: -1.08
interaction score [41]: -1.31
interaction score [42]: -2.15
interaction score [43]: -1.24
interaction score [44]: -0.785
interaction score [45]: -1.86

B5: 4H591-bN (peptide)
chain: DEIQQLKQEIQELKQEIQELKWKNQELEQ
interaction score [46]: 1.27
interaction score [47]: -0.933
interaction score [48]: -1.13

Next, values leading:

interaction score [8]: -0.189
interaction score [9]: -0.665
interaction score [10]: -1.43
interaction score [11]: -1.06
interaction score [12]: -0.474
interaction score [13]: -0.784
interaction score [14]: -1.67
interaction score [15]: 2.25
interaction score [16]: -2.64
B2: 4H683-bA (peptide)
chain: DEIAQLKQENAELEQKIAELKWENAQLEQ

interaction score [49]: -0.211
interaction score [50]: -0.446
interaction score [51]: -1.09
B6: 4H619-bA (peptide)
chain: DEIAQLKQEIAELKQKIAELKWENAQLEQ
